From patent US20150203577A1 (Chugai, published 2015)
Numbering of substitutions follows the chain as printed. Names may count otherwise. Like-named read-outs stand apart in the source and are kept apart here. Values belong to the binder of their own block, whether it stands above or below them.

Experiments:
mouse FcγRII [1] = molecular target: T1, mouse FcγRII (mouse, UniProt P08101 30-210); assay: SPR Biacore T200, KD ratio
T1 construct: also called mFcγRII; mFcgRII
T1 sequence: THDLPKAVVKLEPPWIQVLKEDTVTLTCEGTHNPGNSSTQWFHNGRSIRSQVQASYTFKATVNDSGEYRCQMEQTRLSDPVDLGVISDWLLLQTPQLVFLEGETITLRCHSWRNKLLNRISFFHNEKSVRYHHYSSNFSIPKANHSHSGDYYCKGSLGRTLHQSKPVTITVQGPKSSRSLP

mouse FcγRII [2] = molecular target: T1, mouse FcγRII; assay: SPR Biacore T200, KD ratio; upper end tied to MB397 by Table 8
mouse FcγRII [3] = molecular target: T1, mouse FcγRII; assay: told of the L104-mk1 form; SPR was run on the MRAL-k0 form
mouse FcγRIII [4] = molecular target: T2, mouse FcγRIII (mouse, UniProt P08508 31-215); assay: as above
T2 construct: also called mFcγRIII; mFcgRIII
T2 chain: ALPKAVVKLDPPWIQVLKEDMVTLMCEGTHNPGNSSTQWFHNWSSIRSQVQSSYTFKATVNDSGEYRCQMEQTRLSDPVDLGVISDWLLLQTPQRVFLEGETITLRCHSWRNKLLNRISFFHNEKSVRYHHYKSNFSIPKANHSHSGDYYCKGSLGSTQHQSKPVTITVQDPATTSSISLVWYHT

mouse FcγRIII [5] = molecular target: T2, mouse FcγRIII; assay: SPR Biacore T200
From the text: (§1) The antibody H chain variable region used was the variable region H237 (SEQ ID NO: 1) of the H chain VH3-IgG1 of the anti-IL-6 receptor antibody Fv4-IgG1 described in WO2009/125825. The antibody L chain commonly used was the L chain MRAL-k0 (SEQ ID NO: 2) of the anti-IL-6 receptor antibody tocilizumab. The aforementioned 11 variants were used as templates to introduce the alteration. These variants were expressed and purified by the method of Reference Example 1 and evaluated for their binding to mFcγRII and mFcγRIII by the method of Reference Example 2 using Biacore T200.
Each altered antibody was analyzed for its interaction with each Fcγ receptor prepared above using Biacore T100 (GE Healthcare Japan Corp.), Biacore T200 (GE Healthcare Japan Corp.), Biacore A100, or Biacore 4000. The running buffer used was HBS-EP+ (GE Healthcare Japan Corp.). The assay temperature was set to 25° C. […]
In order to calculate the KD value of each altered antibody for FcγR, kinetic analysis was conducted according to the following method: first, the antibody of interest was captured onto any of these chips and allowed to interact with mFcγR diluted with a running buffer. […] From these values, the dissociation constant KD (mol/L) was calculated.

mouse FcγRII [6] = molecular target: T1, mouse FcγRII; assay: SPR Biacore T200, KD ratio; upper end tied to MB682 by Table 20
mouse FcγRII [7] = molecular target: T1, mouse FcγRII; assay: SPR Biacore T200, KD ratio; lower end tied to MB684 by Table 20
mouse FcγRII [8] = molecular target: T1, mouse FcγRII; assay: told of the L104-mk1 form; SPR (Table 28) was run on the MRAL-k0 form
[9] = molecular target: T3, mouse FcγRII extracellular domain, C-terminally His-tagged (mouse, UniProt P08101 30-210); assay: SPR Biacore T200
T3 construct: the whole entry is named; also called mFcγRII; mFcgRII
T3 sequence: T1 sequence

[10] = molecular target: T4, mouse FcγRIII extracellular domain, C-terminally His-tagged (mouse, UniProt P08508 31-215); assay: SPR Biacore T200, KD ratio
T4 construct: the whole entry is named; also called mFcγRIII; mFcgRIII
T4 chain: T2 chain

mouse FcγRII [11] = molecular target: T1, mouse FcγRII; assay: SPR Biacore T200, KD ratio; lower end tied to MB425 by Table 8
[12] = molecular target: T3, mouse FcγRII extracellular domain, …; assay: SPR Biacore T200, antibody captured on Protein L
Experimental: (§2) As for alterations, “X000Z” represents the substitution of amino acid X at EU numbering position 000 by amino acid Z. In this context, X and Z represent the one-letter codes of the amino acid residues.
(§3) Each altered antibody was analyzed for its interaction with each Fcγ receptor prepared above using Biacore T100 (GE Healthcare Japan Corp.), Biacore T200 (GE Healthcare Japan Corp.), Biacore A100, or Biacore 4000. The running buffer used was HBS-EP+ (GE Healthcare Japan Corp.). The assay temperature was set to 25° C. The sensor chips used were chips prepared by immobilizing Protein L (ACTIGEN or BioVision) onto Series S Sensor Chip CM5 (GE Healthcare Japan Corp.) or Series S Sensor Chip CM4 (GE Healthcare Japan Corp.) by the amine coupling method.
(§4) In order to calculate the KD value of each altered antibody for FcγR, kinetic analysis was conducted according to the following method: first, the antibody of interest was captured onto any of these chips and allowed to interact with mFcγR diluted with a running buffer. For the obtained sensorgram, the assay results were globally fit into the 1:1 Langmuir binding model using Biacore Evaluation Software to calculate an association rate constant ka (L/mol/s) and a dissociation rate constant kd (1/s). From these values, the dissociation constant KD (mol/L) was calculated.

[13] = molecular target: T4, mouse FcγRIII extracellular domain, …; assay: SPR Biacore T200, antibody captured on Protein L
Experimental: as §2, §3, §4

[14] = molecular target: T3, mouse FcγRII extracellular domain, …; assay: SPR Biacore T200, KD ratio
Experimental: as §2, §3, §4

[15] = molecular target: T4, mouse FcγRIII extracellular domain, …; assay: SPR Biacore T200, KD ratio
Experimental: as §2, §3, §4

[16] = molecular target: T5, mouse FcγRIII extracellular domain, C-terminal His tag (mouse, UniProt P08508 31-215); assay: SPR (Biacore T200)
T5 construct: Whole entry named; also called mFcγRIII; mFcgRIII
T5 chain: T2 chain
From the text: as §1, with “7” for “11”, “substitute the amino acids at the alteration sites by the amino acids before” for “introduce”
as §3

[17] = molecular target: T6, mouse FcγRII extracellular domain, C-terminal His tag (mouse, UniProt P08101 30-210); assay: SPR (Biacore T200); KD of H237-mIgG1/MRAL-k0 / KD of variant
T6 construct: Whole entry named; also called mFcγRII; mFcgRII
T6 sequence: T1 sequence
From the text: as §1, with “7” for “11”, “substitute the amino acids at the alteration sites by the amino acids before” for “introduce”
as §3

B1: H237-MB397/MRAL-k0 (antibody, mouse IgG1, kappa)
heavy: QVQLQESGPGLVKPSETLSLTCAVSGHSISHDHAWSWVRQPPGEGLEWIGFISYSGITNYNPSLQGRVTISRDNSKNTLYLQMNSLRAEDTAVYYCARSLARTTAMDYWGEGTLVTVSSAKTTPPSVYPLAPGSAAQTNSMVTLGCLVKGYFPEPVTVTWNSGSLSSGVHTFPAVLQSDLYTLSSSVTVPSSTWPSETVTCNVAHPASSTKVDKKIVPRDCGCKPCICETYEVEDVFIFPPKPKDVLTITLTPKVTCVVVDISKDDPEVQFSWFVDDVEVHTAQTQPREEQFNSTFRSVSELPIMHQDWLNGKEFKCRVNSAAFPAPIEKTISKTKGRPKAPQVYTIPPPKEQMAKDKVSLTCMITDFFPEDITVEWQWNGQPAENYKNTQPIMDTDGSYFVYSKLNVQKSNWEAGNTFTCSVLHEGLHNHHTEKSLSHSPGK
light: not shown
notes: mIgG1 with T230E/V231T/P232Y/S238E/S239D; also called template T4; copies: 2 + 2
relative mFcγRII-binding activity (H237-mIgG1/MRAL-k0 = 1) (mouse FcγRII [1]): > 500 fold
relative mFcγRII-binding activity (H237-mIgG1/MRAL-k0 = 1) (mouse FcγRII [2]): 600 fold

B5: H237-MB701/MRAL-k0 (antibody, mouse IgG1, kappa)
heavy: B1 heavy with T230V, Y231P, V233E, D235F
light: not shown
notes: copies: 2 + 2
binding result (mouse FcγRIII [5]): no binding

B6: MB684 (antibody)
heavy: B1 heavy with E229Q, T230P, Y231K
light: not shown
notes: copies: 2 + 2
relative mFcγRII-binding activity (H237-mIgG1/MRAL-k0 = 1) (mouse FcγRII [7]): 5 to 15 fold

B7: H237-MB492/L104-mk1 (antibody, mouse IgG1, kappa)
heavy: B1 heavy with T230P, Y231N, N320D
light: DIQMTQSPSSLSASVGDSVTITCQASTDISSHLNWYQQKPGKAPELLIYYGSHLLSGVPSRFSGSGSGTDFTFTISSLEAEDAATYYCGQGNRLPYTFGQGTKVEIERADAAPTVSIFPPSSEQLTSGGASVVCFLNNFYPKDINVKWKIDGSERQNGVLNSWTDQDSKDSTYSMSSTLTLTKDEYERHNSYTCEATHKTSTSPIVKSFNRNEC
notes: the text gives the rounded value for this form; copies: 2 + 2
relative mFcγRII-binding activity (H237-mIgG1/L104-mk1 = 1) (mouse FcγRII [8]): ~620 fold

B10: H237-MB367/MRAL-k0 (antibody, mouse IgG1, kappa)
heavy: B1 heavy with T230A, Y231N
light: not shown
notes: T230E/V231A/P232N/S238E/S239D (EU) against H237-mIgG1; copies: 2 + 2
Kd [12]: 1.32 nM
Kd [13]: 45.4 nM
relative mFcγRII-binding activity (mIgG1 = 1) [14]: 159 fold
relative mFcγRIII-binding activity (mIgG1 = 1) [15]: 6.2 fold

B12: H237-mF46/MRAL-k0 (antibody, mouse IgG1, kappa)
heavy: B1 heavy with E229T, T230V, Y231P, E234S, A323D
light: not shown
notes: S239D/A327D (EU) against H237-mIgG1; copies: 2 + 2
Kd [12]: 1.33 nM
Kd [13]: 6.4 nM
relative mFcγRII-binding activity (mIgG1 = 1) [14]: 158 fold
relative mFcγRIII-binding activity (mIgG1 = 1) [15]: 44 fold

Continued, values first:

binding result (mouse FcγRII [3]): binds
binding result (mouse FcγRIII [4]): binds
B2: H237-mF46/L104-mk1 (antibody, mouse IgG1, kappa)
heavy: B1 heavy with E229T, T230V, Y231P, E234S, A323D
light: B7 light
notes: the text speaks of it for this form; copies: 2 + 2

binding result (mouse FcγRIII [5]): no binding
B3: H237-MB697/MRAL-k0 (antibody, mouse IgG1, kappa)
heavy: B1 heavy with T230P, Y231P, D235F
light: not shown
notes: copies: 2 + 2

relative mFcγRII-binding activity (H237-mIgG1/MRAL-k0 = 1) (mouse FcγRII [6]): 5 to 15 fold
B4: MB682 (antibody)
heavy: B1 heavy with T230P, Y231K
light: not shown
notes: copies: 2 + 2

binding result [9]: no binding
relative mFcγRIII-binding activity (mIgG1 = 1) [10]: 0.02 fold
B8: H237-MB656/MRAL-k0 (antibody, mouse IgG1, kappa)
heavy: B1 heavy with E229I, T230P, Y231A, D235F
light: not shown
notes: copies: 2 + 2

relative mFcγRII-binding activity (H237-mIgG1/MRAL-k0 = 1) (mouse FcγRII [11]): 200 fold
B9: H237-MB425/MRAL-k0 (antibody, mouse IgG1, kappa)
heavy: B1 heavy with E229I, T230P, Y231A
light: not shown
notes: mIgG1 with T230I/V231P/P232A/S238E/S239D; also called template T7; copies: 2 + 2

binding result [16]: no binding
relative mFcγRII-binding activity (mIgG1 = 1) [17]: 0.217 fold
B11: H237-MB697/MRAL-k0 (antibody, mouse IgG1, kappa)
heavy: B1 heavy with T230P, Y231P, D235F
light: not shown
notes: copies: 2 + 2

binding result [16]: no binding
relative mFcγRII-binding activity (mIgG1 = 1) [17]: 0.187 fold
B13: H237-MB701/MRAL-k0 (antibody, mouse IgG1, kappa)
heavy: B1 heavy with T230V, Y231P, V233E, D235F
light: not shown
notes: copies: 2 + 2
